Each block holds one binder with its values, some of them ahead of it.
Experiments:
mouse SIRPA BALB/c = target: T1, mouse SIRPA BALB/c (mouse (BALB/c), UniProt P97797 35-513); assay: cell-based ELISA, transfected 293α cells
T1 construct: FLAG-tagged (pFLAG V5-DEST), on 293α cells
T1 chain: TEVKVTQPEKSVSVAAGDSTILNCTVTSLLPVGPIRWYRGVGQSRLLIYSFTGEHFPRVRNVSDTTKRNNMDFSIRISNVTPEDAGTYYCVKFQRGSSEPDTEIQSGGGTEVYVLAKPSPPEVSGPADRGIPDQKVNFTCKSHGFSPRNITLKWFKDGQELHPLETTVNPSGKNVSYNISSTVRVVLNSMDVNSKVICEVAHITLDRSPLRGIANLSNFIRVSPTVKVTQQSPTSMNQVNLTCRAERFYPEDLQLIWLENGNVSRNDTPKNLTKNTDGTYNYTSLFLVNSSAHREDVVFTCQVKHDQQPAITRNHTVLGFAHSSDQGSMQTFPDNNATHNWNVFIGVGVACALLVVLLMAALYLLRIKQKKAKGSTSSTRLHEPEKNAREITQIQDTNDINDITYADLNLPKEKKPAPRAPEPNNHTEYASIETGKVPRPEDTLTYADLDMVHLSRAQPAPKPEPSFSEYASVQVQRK
Experimental: (§1) After the culture supernatant of 293α cells into which the pFLAG V5-DEST-monkey SIRPA or pFLAG V5-DEST-mouse SIRPA expression vector was introduced and the pFLAG V5-DEST-introduced 293α cells prepared in Example 1)-5-2 was removed, binding to monkey or mouse SIRPA was evaluated in the same manner as for the binding activity of human SIRPA.

mouse SIRPA_C57BL/6 = target: T2, mouse SIRPA_C57BL/6 (mouse (C57BL/6), UniProt P97797 32-513); assay: cell-based ELISA, transfected 293α cells
T2 construct: FLAG-tagged (pFLAG V5-DEST), on 293α cells
T2 sequence: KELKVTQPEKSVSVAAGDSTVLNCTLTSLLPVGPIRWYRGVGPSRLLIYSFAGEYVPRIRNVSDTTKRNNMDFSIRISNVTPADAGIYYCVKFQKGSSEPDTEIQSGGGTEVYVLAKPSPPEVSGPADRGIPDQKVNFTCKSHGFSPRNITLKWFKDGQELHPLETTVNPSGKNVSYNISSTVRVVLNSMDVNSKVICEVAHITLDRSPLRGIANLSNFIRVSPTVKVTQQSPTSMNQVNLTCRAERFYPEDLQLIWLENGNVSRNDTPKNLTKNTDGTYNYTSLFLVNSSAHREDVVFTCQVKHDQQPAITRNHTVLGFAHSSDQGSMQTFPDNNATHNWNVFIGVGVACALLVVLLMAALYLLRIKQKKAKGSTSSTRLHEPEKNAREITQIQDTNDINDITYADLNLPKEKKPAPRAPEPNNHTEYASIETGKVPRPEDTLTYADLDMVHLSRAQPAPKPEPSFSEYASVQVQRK
Experimental: as §1

mouse SIRPA_NOD = target: T3, mouse SIRPA_NOD (mouse (NOD), UniProt P97797 32-513); assay: cell-based ELISA, transfected 293α cells
T3 construct: FLAG-tagged (pFLAG V5-DEST), on 293α cells; also called NOD SCID
T3 chain: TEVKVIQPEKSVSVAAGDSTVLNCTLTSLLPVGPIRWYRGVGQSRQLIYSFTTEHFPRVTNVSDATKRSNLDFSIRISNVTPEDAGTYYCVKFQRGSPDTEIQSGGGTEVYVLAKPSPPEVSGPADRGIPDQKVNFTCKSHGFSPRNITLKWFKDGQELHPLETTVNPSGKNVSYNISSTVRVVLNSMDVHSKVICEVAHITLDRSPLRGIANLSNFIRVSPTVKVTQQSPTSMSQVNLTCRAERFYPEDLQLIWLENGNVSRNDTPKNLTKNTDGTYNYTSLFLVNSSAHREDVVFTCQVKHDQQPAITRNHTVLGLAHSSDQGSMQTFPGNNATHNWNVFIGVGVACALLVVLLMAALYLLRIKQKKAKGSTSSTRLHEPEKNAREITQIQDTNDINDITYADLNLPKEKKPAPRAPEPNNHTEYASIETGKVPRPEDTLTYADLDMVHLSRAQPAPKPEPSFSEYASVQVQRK
Experimental: as §1

mouse SIRPA_129 = target: T4, mouse SIRPA_129 (mouse (129), UniProt P97797 32-513); assay: cell-based ELISA, transfected 293α cells
T4 construct: FLAG-tagged (pFLAG V5-DEST), on 293α cells; also called 129sv
T4 chain: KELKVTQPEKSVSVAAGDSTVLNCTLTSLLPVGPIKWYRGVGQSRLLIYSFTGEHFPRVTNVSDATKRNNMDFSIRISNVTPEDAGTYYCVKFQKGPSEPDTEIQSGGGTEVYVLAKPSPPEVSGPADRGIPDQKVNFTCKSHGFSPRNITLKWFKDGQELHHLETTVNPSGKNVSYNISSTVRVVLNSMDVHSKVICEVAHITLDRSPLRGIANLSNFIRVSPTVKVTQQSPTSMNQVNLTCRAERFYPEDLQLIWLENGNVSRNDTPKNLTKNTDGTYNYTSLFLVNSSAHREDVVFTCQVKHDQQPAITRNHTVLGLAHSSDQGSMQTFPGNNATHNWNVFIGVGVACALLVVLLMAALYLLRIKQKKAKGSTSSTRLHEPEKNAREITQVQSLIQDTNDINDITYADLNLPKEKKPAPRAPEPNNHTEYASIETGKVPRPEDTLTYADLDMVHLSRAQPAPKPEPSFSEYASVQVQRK
Experimental: as §1

SIRPA_V2_IgV = target: T5, SIRPA_V2_IgV (human); assay: SPR Biacore T200, antibody captured on anti-human IgG (Fc), SIRPA_V2_IgV as analyte (0.25 to 16 nM), 1:1 model
T5 construct: Secreted recombinant protein; The crystal model held residues 33 to 143 of human SIRPA Variant 2
T5 sequence (chain, as listed by the source limits assumed): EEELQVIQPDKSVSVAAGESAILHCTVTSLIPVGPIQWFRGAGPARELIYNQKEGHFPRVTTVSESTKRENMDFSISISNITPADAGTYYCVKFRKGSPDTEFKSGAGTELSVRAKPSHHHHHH
Experimental: (§2) The dissociation constants were measured by a capture method comprising capturing each antibody as a ligand to an Anti-Human IgG (Fc) antibody immobilized using Human Antibody Capture Kit (GE Healthcare Bioscience Corp.) and measuring an antigen as an analyte, using Biacore T200 (GE Healthcare Bioscience Corp.). HBS-EP+ (GE Healthcare Bioscience Corp.) was used as a running buffer, and CM5 (GE Healthcare Bioscience Corp.) was used as a sensor chip. Onto the chip, 2 μg/mL of various antibodies were added at 10 μL/min for 30 seconds, then a serially diluted solution (0.25 to 16 nM) of the human SIRPA protein as an antigen was added at a flow rate of 30 μL/min for 120 seconds, and subsequently the dissociation phase for 600 seconds was monitored. As a regenerant, 3 M magnesium chloride (GE Healthcare Bioscience Corp.) was added at a flow rate of 20 μL/min for 30 seconds. For data analysis, a binding rate constant (ka), a dissociation rate constant (kd), and a dissociation constant (KD; KD=kd/ka) were calculated using a 1:1 binding model.

human SIRPA_V2 protein = target: T6, human SIRPA_V2 protein (human, UniProt P78324 31-504); assay: blocking cell-based ELISA: peroxidase-labeled CD47-Fc (1 µg/mL) on 293α cells expressing SIRPA_V2
T6 construct: Expressed on 293α cells from pcDNA3.2 V5-DEST or pFLAG V5-DEST (FLAG-tagged) vectors; also called human SIRPA Variant 2; ECD variant (full-length, amino acids 1 to 504)
T6 sequence (P78324 other isoform, or with tags, fused parts or gaps limits assumed): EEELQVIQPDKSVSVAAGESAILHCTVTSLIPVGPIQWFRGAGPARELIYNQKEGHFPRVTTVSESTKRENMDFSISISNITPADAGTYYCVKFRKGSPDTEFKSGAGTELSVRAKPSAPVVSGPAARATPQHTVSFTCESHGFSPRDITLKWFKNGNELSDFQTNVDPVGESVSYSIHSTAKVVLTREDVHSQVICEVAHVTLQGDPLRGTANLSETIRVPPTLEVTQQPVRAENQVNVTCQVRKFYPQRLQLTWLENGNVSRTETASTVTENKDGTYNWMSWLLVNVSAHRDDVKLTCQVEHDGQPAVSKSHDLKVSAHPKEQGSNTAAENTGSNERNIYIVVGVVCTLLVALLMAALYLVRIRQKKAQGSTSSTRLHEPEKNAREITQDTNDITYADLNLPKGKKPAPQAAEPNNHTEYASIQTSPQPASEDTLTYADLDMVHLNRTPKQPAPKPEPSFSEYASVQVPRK
Experimental: (§3) After the culture supernatant of the human SIRPA_V1 or V2 expression vector-introduced 293 cells prepared in Example 9)-1 was removed, 50 μL per well of various anti-SIRPA antibodies or various control Human IgG diluted with 5% FBS-containing PBS to a final concentration of 0 to 10,000 ng/ml was added to each of pcDNA3.2 V5-DEST-SIRPA_V1 or V2-introduced 293α cells, immediately followed by addition of 50 µL per well of peroxidase-labeled CD47-Fc prepared with 5% FBS-containing PBS at 1 μg/mL, and the mixture was allowed to stand at 4° C. for one hour. Thereafter, the SIRPA-CD47 binding inhibitory activity was evaluated in the same manner as in 1)-6-3.

human SIRPB = target: T7, human SIRPB (human, UniProt O00241 30-398); assay: flow cytometry on CHO-K1 cells expressing FLAG-tagged human SIRPB; PE anti-human IgG; MFI standardized to secondary antibody alone
T7 construct: whole, on cells; FLAG-tagged (pFLAG V5-DEST), on CHO-K1 cells; also called SIRPβ1; signal regulatory protein β1
T7 sequence (O00241 30-398): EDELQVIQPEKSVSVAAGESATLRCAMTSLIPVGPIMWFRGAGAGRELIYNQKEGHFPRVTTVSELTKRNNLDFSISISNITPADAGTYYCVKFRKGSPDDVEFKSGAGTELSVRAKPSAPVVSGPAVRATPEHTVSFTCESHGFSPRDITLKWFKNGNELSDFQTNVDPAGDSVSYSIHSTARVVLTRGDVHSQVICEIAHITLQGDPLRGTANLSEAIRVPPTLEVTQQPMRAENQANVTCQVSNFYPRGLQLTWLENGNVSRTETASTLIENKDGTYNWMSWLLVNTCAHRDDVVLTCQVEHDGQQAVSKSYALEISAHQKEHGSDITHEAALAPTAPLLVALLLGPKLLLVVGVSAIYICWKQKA
Experimental: SIRPβ1 (signal regulatory protein β1: the amino acid sequence thereof is published as RefSeq accession number NP_006056) and SIRPγ (signal regulatory protein γ: the amino acid sequence thereof is published as RefSeq accession number NP_061026) are molecules belonging to the SIRPA family. In the present invention, “SIRPα” may be referred to as “SIRPA,” “SIRPβ1” may be referred to as […] and “SIRPγ” may be referred to as “SIRPG.” CHO-K1 cells were prepared in a 10% FBS-containing Ham's F-12K medium at 3.3×10⁵ cells/mL and cultured overnight at 37° C. under a 5% CO₂ condition. pFLAG V5-DEST-human SIRPβ, pFLAG V5-DEST-human SIRPG, or pFLAG V5-DEST was introduced into the cells using Lipofectamine LTX (Invitrogen), and cells were cultured in a 10% FBS-containing Ham's F-12K medium at 37° C. under a 5% CO₂ condition for 24 hours. The obtained introduced cells were collected and seeded on a 96-well plate. After the culture supernatant was removed, 100 μL per well of various anti-human SIRPA antibodies or various control human IgG was added to each of various gene introduced cells at a final concentration of 0 to 10,000 ng/mL, and the mixture was allowed to stand at 4° C. for 25 minutes. After the mixture was centrifuged, the supernatant was removed, and cells were washed twice with 5% FBS-containing PBS. After the mixture was centrifuged, the supernatant was removed, 50 μL per well of a 1/400 diluted solution of PE Mouse anti-Human IgG antibody (BioLegend) was added, and the mixture was allowed to stand at 4° C. for 25 minutes. After the mixture was centrifuged, the supernatant was removed, and cells were washed twice with 5% FBS-containing PBS.
(§4) After the mixture was centrifuged, and the supernatant was removed, cells were suspended in 100 μL per well of 1× BD Stabilizing Fixative (Becton Dickinson), and the cell count was measured by flow cytometry (FACS Canto II: Becton Dickinson). For data analysis, FlowJo (TreeStar) was used. Cells were characterized by detecting forward scattered (FSC) light and side-scattered (SSC) light, and then the mean fluorescence intensity of PE was calculated. Binding of various antibodies to the family molecules was calculated by standardizing the fluorescence intensity using the mean fluorescence intensity of a sample in which the secondary antibody alone was allowed to react.

SIRPA_V1_IgV = target: T8, SIRPA_V1_IgV (human, UniProt P78324 31-149); assay: SPR Biacore T200, antibody captured on anti-human IgG (Fc), SIRPA_V1_IgV as analyte (0.25 to 16 nM), 1:1 model
T8 construct: Secreted recombinant protein from FreeStyle 293F cells
T8 sequence (P78324 other isoform, or with tags, fused parts or gaps limits assumed): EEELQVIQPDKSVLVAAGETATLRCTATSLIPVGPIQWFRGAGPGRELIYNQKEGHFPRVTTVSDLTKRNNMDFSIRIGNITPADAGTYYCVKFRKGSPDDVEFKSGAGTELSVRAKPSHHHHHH
Experimental: as §2

human SIRPG = target: T9, human SIRPG (human, UniProt Q9P1W8 29-387); assay: flow cytometry on CHO-K1 cells expressing FLAG-tagged human SIRPG; PE anti-human IgG; MFI standardized to secondary antibody alone
T9 construct: whole, on cells; FLAG-tagged (pFLAG V5-DEST), on CHO-K1 cells; also called SIRPγ; signal regulatory protein γ
T9 sequence (Q9P1W8 29-387): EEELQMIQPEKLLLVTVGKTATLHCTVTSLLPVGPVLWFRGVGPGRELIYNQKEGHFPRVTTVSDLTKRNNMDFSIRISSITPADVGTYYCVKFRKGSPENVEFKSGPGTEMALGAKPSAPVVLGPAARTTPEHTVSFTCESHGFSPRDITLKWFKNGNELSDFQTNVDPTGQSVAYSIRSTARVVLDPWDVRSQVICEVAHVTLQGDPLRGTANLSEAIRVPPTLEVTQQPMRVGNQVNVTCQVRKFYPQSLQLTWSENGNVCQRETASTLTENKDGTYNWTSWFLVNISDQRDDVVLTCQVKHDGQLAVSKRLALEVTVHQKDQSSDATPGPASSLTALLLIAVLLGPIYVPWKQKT
Experimental: SIRPβ1 (signal regulatory protein β1: the amino acid sequence thereof is published as RefSeq accession number NP_006056) and SIRPγ (signal regulatory protein γ: the amino acid sequence thereof is published as RefSeq accession number NP_061026) are molecules belonging to the SIRPA family. In the present invention, “SIRPα” may be referred to as “SIRPA,” “SIRPβ1” may be referred to as […] and “SIRPγ” may be referred to as “SIRPG.” CHO-K1 cells were prepared in a 10% FBS-containing Ham's F-12K medium at 3.3×10⁵ cells/mL and cultured overnight at 37° C. under a 5% CO₂ condition. pFLAG V5-DEST-human SIRPβ, pFLAG V5-DEST-human SIRPG, or pFLAG V5-DEST was introduced into the cells using Lipofectamine LTX (Invitrogen), and cells were cultured in a 10% FBS-containing Ham's F-12K medium at 37° C. under a 5% CO₂ condition for 24 hours. The obtained introduced cells were collected and seeded on a 96-well plate. After the culture supernatant was removed, 100 μL per well of various anti-human SIRPA antibodies or various control human IgG was added to each of various gene introduced cells at a final concentration of 0 to 10,000 ng/mL, and the mixture was allowed to stand at 4° C. for 25 minutes. After the mixture was centrifuged, the supernatant was removed, and cells were washed twice with 5% FBS-containing PBS. […]
as §4, with “For data analysis, FlowJo (TreeStar) was used.” left out

human SIRPA_V1 protein = target: T10, human SIRPA_V1 protein (human, UniProt P78324 31-504); assay: blocking cell-based ELISA: peroxidase-labeled CD47-Fc (1 µg/mL) on 293α cells expressing SIRPA_V1
T10 construct: Expressed on 293α cells from pcDNA3.2 V5-DEST or pFLAG V5-DEST (FLAG-tagged) vectors; also called human SIRPA Variant 1; hSIRPA V1
T10 sequence (P78324 31-504 limits assumed): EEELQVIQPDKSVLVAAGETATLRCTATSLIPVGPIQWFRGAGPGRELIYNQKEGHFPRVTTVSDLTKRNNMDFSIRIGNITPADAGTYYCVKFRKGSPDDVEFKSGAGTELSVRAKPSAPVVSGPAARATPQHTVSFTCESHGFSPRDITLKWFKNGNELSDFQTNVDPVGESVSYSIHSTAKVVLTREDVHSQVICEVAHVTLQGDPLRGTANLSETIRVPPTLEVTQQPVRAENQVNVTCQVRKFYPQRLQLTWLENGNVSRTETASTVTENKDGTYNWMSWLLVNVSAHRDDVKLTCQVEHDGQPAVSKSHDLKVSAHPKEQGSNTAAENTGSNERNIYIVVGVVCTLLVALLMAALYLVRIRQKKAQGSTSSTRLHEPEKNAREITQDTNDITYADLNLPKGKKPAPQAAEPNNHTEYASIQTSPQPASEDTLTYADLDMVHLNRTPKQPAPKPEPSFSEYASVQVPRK
Experimental: as §3

binding result (mouse SIRPA BALB/c): no binding | binding result (mouse SIRPA_C57BL/6): no binding | binding result (mouse SIRPA_NOD): no binding | binding result (mouse SIRPA_129): no binding
B1: rat anti-human SIRPA monoclonal antibody D13 (antibody, V domains shown)
VH: EVQLVESGGGLVQPGRSLKLSCLASGFTFSDYGMIWVRQAPGKGLEWVASISSSSSYIYYADTVKGRFTISRENAKNTLFLHMTSLRSEDTALYYCARRYYGFNYPFDYWGQGVMVTVSS
VL: DTVLTQSPALAVSLGQRVTISCGASKSVRTYMHWYQQKSGQQPKLLIYSASNLEAGVPSRFSGSGSGTDFTLTIDPVEADDIANYYCQQSNEPPYTFGAGTKLELK
notes: Rat IgG1/kappa purified from hybridoma

Kd (SIRPA_V2_IgV): 6.32 nM | IC50 (human SIRPA_V2 protein): 2.12 µg/mL | EC50 (read off the curve) (human SIRPB): ~0.2 µg/mL | Kd (SIRPA_V1_IgV): 4.39 nM | binding result (human SIRPG): binds | IC50 (human SIRPA_V1 protein): 2.97 µg/mL
B2: ADU-1805 (antibody, human IgG2, kappa, V domains shown)
VH: EVQLVQSGAEVVKPGASVKLSCKASGSTFTSYWMHWVKQAPGQGLEWIGAIYPVNSDTTYNQKFKGKATLTVDKSASTAYMELSSLRSEDTAVYYCTRSFYYSLDAAWFVYWGQGTLVTVSS
VL: DIQMTQSPSSLSASVGDRVTITCRASQDIGSRLNWLQQKPGKAPKRLIYATSSLDSGVPSRFSGSGSGTEFTLTISSLQPEDFATYYCLQYASSPFTFGGGTKVEIKR
notes: IgG2 heavy chain; also called ADU-1805_hG2 / ADU-1805_hK

— patent publication US20260098102A1 (NATIONAL UNIVERSITY CORPORATION KOBE UNIVERSITY, published 2026)
